Source: paper PMC3852654

Tests used:
[1] = target: Rap2a (resistance-associated protein 2a, immunity protein of Ssp2), without N-terminal periplasmic targeting sequence (Serratia marcescens); assay: crystal structure; Rap2a alone, 13.5 mg/ml; reservoir 25% PEG 1000, 0.1 M MES pH 6.5; 1.9 A; four molecules in the asymmetric unit
[2] = target: Rap1a (resistance-associated protein 1a, immunity protein of Ssp1), without N-terminal periplasmic targeting sequence (Serratia marcescens); assay: crystal structure; Rap1a alone; reservoir 25% PEG 3350, 100 mM bis-tris pH 5.5; about 2.0 A; two molecules in the asymmetric unit
[3] = target: Rap1a (resistance-associated protein 1a, immunity protein of Ssp1), without N-terminal periplasmic targeting sequence (Serratia marcescens); assay: SEC; Rap1a alone in solution (Supplementary Fig. S1)

## Rap2a (resistance-associated protein 2a, immunity protein of Ssp2), without N-terminal periplasmic targeting sequence (natural protein)
[1]
  stoichiometry N: 2

## Rap1a (resistance-associated protein 1a, immunity protein of Ssp1), without N-terminal periplasmic targeting sequence (natural protein)
[2]
  stoichiometry N: 2
[3]
  stoichiometry N: 2
